Paper PMC10552185, “Impaired cAMP processivity by phosphodiesterase-protein kinase A complexes in acrodysostosis” (Frontiers in Molecular Biosciences, 2023)

B1: catalytic domain of wild-type PDE8A1 (472-829) (domain or fragment, UniProt O60658-1 472-829, looked up)
chain: SSNIITPISLDDVPPRIARAMENEEYWDFDIFELEAATHNRPLIYLGLKMFARFGICEFLHCSESTLRSWLQIIEANYHSSNPYHNSTHSADVLHATAYFLSKERIKETLDPIDEVAALIAATIHDVDHPGRTNSFLCNAGSELAILYNDTAVLESHHAALAFQLTTGDDKCNIFKNMERNDYRTLRQGIIDMVLATEMTKHFEHVNKFVNSINKPLATLEENGETDKNQEVINTMLRTPENRTLIKRMLIKCADVSNPCRPLQYCIEWAARISEEYFSQTDEEKQQGLPVVMPVFDRNTCSIPKSQISFIDYFITDMFDAWDAFVDLPDLMQHLDNNFKYWKGLDEMKLRNLRPPPE
notes: PDE8A catalytic domain, residues 472-829 of PDE8A1, UniProtKB O60658 used for the HDXMS peptide search; Cloned in pET-Duet1; also called PDE8 WT; WT PDE8
B2: PDE8A catalytic domain (472-829) T690P (domain or fragment, UniProt O60658 472-829, looked up)
chain: SSNIITPISLDDVPPRIARAMENEEYWDFDIFELEAATHNRPLIYLGLKMFARFGICEFLHCSESTLRSWLQIIEANYHSSNPYHNSTHSADVLHATAYFLSKERIKETLDPIDEVAALIAATIHDVDHPGRTNSFLCNAGSELAILYNDTAVLESHHAALAFQLTTGDDKCNIFKNMERNDYRTLRQGIIDMVLATEMTKHFEHVNKFVNSINKPLAPLEENGETDKNQEVINTMLRTPENRTLIKRMLIKCADVSNPCRPLQYCIEWAARISEEYFSQTDEEKQQGLPVVMPVFDRNTCSIPKSQISFIDYFITDMFDAWDAFVDLPDLMQHLDNNFKYWKGLDEMKLRNLRPPPE
notes: PDE8A catalytic domain, residues 472-829 of PDE8A1, UniProtKB O60658, with T690P (made as the equivalent of the acrodysostosis mutation PDE4D T594P); Cloned in pET-Duet1; also called PDE8 T690P; PDE8c T690P

Target: T1, cAMP-dependent protein kinase (PKA) type I regulatory subunit isoform α, full-length wild type (UniProt P00514 1-380)
T1 construct: PKA type I regulatory subunit α (RIα), full length, UniProtKB P00514 used for the HDXMS peptide search; Cloned in pRSETA; for FP loaded with 8-fl-cAMP or 2'-fl-cAMP; also called RIα; WT RIα
T1 sequence (P00514 whole entry, canonical isoform): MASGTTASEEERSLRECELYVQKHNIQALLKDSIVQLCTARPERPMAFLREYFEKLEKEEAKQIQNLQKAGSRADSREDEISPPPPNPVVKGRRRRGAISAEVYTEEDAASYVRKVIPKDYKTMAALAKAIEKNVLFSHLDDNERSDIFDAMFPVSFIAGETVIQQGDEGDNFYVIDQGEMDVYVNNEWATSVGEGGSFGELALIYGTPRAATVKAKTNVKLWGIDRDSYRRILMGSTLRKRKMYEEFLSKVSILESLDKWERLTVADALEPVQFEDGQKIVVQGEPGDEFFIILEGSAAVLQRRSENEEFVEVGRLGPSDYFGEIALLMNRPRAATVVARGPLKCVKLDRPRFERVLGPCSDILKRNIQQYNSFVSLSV
Experiment: fluorescence polarisation; about 1 uM RIα preloaded with 8-fl-cAMP or 2'-fl-cAMP (excess ligand removed by SEC), about 2 uM PDE8 added; polarisation followed over 120 min; 96-well plates; excess cAMP (25 or 100 uM) added at 20 min in some runs
Conditions: both partners purified

Binder	binding result
B1	binds
B2	binds
